Here are results for one molecule from paper PMC2409435 (Nature, 2007).

The target of this assay is Recombinant MRE11-RAD50-NBS1 (MRN) complex (human | , UniProt P49959 1-708; Q92878 1-1312; O60934 1-754). Put plainly: co-IP.
Sequence of Recombinant MRE11-RAD50-NBS1 (MRN) complex (P49959 whole entry, chain 1 of 3): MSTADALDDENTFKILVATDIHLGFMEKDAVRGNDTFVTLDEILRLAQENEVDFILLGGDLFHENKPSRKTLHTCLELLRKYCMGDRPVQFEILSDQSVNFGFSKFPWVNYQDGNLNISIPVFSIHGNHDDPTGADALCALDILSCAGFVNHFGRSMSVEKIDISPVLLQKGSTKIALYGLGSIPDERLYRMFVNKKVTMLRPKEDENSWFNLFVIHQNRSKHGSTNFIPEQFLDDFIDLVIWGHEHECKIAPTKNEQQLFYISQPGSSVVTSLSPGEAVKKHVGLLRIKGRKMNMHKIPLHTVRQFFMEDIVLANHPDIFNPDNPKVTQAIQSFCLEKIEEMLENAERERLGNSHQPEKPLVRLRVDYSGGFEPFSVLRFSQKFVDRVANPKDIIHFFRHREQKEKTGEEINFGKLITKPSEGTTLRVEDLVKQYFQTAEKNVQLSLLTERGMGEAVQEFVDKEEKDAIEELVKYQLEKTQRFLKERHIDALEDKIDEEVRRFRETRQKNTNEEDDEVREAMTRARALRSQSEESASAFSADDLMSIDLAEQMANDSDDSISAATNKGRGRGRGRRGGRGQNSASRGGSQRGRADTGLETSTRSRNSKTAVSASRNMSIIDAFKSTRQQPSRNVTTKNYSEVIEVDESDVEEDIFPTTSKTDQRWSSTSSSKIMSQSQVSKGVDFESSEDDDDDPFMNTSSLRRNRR
Sequence of Recombinant MRE11-RAD50-NBS1 (MRN) complex (Q92878 whole entry, chain 2 of 3): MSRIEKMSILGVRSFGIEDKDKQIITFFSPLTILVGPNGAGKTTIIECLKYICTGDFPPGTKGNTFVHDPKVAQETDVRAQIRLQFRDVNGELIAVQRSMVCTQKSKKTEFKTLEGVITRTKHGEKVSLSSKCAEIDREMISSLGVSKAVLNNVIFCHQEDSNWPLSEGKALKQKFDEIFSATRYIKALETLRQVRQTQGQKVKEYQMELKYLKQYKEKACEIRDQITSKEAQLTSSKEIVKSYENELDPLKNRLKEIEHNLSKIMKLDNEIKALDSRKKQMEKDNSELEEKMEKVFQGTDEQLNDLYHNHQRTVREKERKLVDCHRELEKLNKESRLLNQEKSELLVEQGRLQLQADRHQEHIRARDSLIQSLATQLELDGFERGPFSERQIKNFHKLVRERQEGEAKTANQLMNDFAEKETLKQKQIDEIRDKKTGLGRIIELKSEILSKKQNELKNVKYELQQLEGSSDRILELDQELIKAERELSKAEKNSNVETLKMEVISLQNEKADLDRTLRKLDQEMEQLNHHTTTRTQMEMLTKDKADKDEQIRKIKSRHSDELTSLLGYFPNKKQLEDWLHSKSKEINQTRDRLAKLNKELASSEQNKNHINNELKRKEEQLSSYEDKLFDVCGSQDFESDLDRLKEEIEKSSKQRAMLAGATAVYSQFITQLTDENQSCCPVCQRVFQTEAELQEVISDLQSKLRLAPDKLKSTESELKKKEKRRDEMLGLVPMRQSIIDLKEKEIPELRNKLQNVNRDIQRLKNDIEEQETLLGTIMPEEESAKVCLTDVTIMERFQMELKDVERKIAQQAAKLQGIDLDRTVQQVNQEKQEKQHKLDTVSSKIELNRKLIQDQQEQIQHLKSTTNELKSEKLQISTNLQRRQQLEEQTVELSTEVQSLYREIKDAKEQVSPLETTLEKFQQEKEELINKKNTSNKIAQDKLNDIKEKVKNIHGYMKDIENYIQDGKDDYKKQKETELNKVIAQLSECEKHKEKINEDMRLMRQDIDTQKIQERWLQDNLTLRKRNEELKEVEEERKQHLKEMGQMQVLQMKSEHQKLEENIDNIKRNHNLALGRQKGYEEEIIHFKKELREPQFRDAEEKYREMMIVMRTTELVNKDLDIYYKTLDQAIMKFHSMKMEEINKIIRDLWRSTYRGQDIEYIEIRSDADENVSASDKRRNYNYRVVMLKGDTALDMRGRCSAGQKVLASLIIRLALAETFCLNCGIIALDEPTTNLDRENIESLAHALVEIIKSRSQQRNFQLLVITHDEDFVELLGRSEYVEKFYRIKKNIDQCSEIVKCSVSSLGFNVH
Sequence of Recombinant MRE11-RAD50-NBS1 (MRN) complex (O60934 whole entry, chain 3 of 3): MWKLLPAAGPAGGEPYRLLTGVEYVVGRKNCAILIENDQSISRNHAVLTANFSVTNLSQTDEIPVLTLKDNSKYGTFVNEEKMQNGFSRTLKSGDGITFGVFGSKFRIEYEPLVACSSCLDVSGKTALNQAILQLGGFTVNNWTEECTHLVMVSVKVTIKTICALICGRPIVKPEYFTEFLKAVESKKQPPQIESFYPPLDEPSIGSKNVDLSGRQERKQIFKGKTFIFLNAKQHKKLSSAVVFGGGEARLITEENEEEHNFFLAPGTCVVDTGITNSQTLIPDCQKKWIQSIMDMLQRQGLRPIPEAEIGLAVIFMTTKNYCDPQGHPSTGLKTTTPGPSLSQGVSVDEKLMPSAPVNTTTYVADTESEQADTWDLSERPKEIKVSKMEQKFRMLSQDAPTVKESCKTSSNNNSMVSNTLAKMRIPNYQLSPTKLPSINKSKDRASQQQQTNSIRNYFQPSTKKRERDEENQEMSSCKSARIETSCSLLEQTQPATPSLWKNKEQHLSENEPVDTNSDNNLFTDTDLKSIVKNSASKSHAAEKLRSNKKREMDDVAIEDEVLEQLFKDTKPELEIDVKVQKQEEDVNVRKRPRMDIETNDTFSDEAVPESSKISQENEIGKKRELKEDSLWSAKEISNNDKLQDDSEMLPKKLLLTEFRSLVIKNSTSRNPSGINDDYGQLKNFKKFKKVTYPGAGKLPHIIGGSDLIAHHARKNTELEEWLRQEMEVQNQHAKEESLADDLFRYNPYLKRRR

B1: Recombinant FLAG-GST-CtIP-6H (natural protein, human, UniProt Q99708 1-897, looked up)
chain: MNISGSSCGSPNSADTSSDFKDLWTKLKECHDREVQGLQVKVTKLKQERILDAQRLEEFFTKNQQLREQQKVLHETIKVLEDRLRAGLCDRCAVTEEHMRKKQQEFENIRQQNLKLITELMNERNTLQEENKKLSEQLQQKIENDQQHQAAELECEEDVIPDSPITAFSFSGVNRLRRKENPHVRYIEQTHTKLEHSVCANEMRKVSKSSTHPQHNPNENEILVADTYDQSQSPMAKAHGTSSYTPDKSSFNLATVVAETLGLGVQEESETQGPMSPLGDELYHCLEGNHKKQPFEESTRNTEDSLRFSDSTSKTPPQEELPTRVSSPVFGATSSIKSGLDLNTSLSPSLLQPGKKKHLKTLPFSNTCISRLEKTRSKSEDSALFTHHSLGSEVNKIIIQSSNKQILINKNISESLGEQNRTEYGKDSNTDKHLEPLKSLGGRTSKRKKTEEESEHEVSCPQASFDKENAFPFPMDNQFSMNGDCVMDKPLDLSDRFSAIQRQEKSQGSETSKNKFRQVTLYEALKTIPKGFSSSRKASDGNCTLPKDSPGEPCSQECIILQPLNKCSPDNKPSLQIKEENAVFKIPLRPRESLETENVLDDIKSAGSHEPIKIQTRSDHGGCELASVLQLNPCRTGKIKSLQNNQDVSFENIQWSIDPGADLSQYKMDVTVIDTKDGSQSKLGGETVDMDCTLVSETVLLKMKKQEQKGEKSSNEERKMNDSLEDMFDRTTHEEYESCLADSFSQAADEEEELSTATKKLHTHGDKQDKVKQKAFVEPYFKGDERETSLQNFPHIEVVRKKEERRKLLGHTCKECEIYYADMPAEEREKKLASCSRHRFRYIPPNTPENFWEVGFPSTQTCMERGYIKEDLDPCPRPKRRQPYNAIFSPKGKEQKT
For the molecule B1, the binding result is listed as “binds”.
